Source: patent CN117551199A (HANGZHOU RONGGU BIOTECHNOLOGY CO LTD, dated 2024)

T1: CLDN18.2 (Claudin18.2) expressed on cells (UniProt P56856-2 1-261)
T1 construct: whole, on cells; also called K562-CLDN18.2
T1 sequence (looked up): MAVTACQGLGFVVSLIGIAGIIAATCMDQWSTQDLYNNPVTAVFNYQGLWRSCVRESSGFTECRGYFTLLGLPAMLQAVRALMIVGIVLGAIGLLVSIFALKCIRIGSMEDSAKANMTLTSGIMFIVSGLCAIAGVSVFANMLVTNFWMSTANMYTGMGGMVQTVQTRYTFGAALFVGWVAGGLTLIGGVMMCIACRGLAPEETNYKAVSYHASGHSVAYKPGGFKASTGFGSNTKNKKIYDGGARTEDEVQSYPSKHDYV

B1: Claudin18.2纳米抗体 2F (VHH)
VHH: QVQLVESGGGSVQAGGSLRLSCAGSGYVYPYYCMGWFRQAPGKERERVASIDRAGSQSYADSVKGRFTISKDNAKNTLYLQMGSLEPEDTAMYYCATDLGDGLWYSGCGTYRYWGQGTQVTVSS
notes: Bactrian camel VHH, made in a cell-free system and purified on His beads; detected through a Myc tag; also called Claudin18.2nb; not shown: N-terminal tag of the cell-free construct (8His-GSG and vector-derived residues, known only from primer DNA); amino acid; C-terminal Myc tag (detected with anti-Myc-Tag 9B11)
B2: Claudin18.2纳米抗体 10B (VHH)
VHH: EVQLVESGGGSVQAGGSLRLSCAASEQTYNRYCMGWFRQAPGKEREGVADINWRGIPNYSDSVKGRFTISQDHAKNTLYLQMNSLKPEDTAMYYCAARRGLPVVGCYDEYNIWGQGTQVTVSS
notes: as for B1
B3: Claudin18.2纳米抗体 11C (VHH)
VHH: DVQLQESGGGSVQAGGSLRLSCAASGAIYMRNYMAWFRQVPGKEREGVAGISASSGRTYYDDSVKGRFTISQDNAKNTVYLQMNSLKPEDTAMYFCAADPFQVMIDTMRYWGQGTQVTVSS
notes: as for B1
B4: Claudin18.2纳米抗体 12B (VHH)
VHH: EVQLVESGGGSVQAGGSLRLSCAVSGYTYNLKYMGWFRQAPGKEREPVAFIYLGGDNQYYAPSVKDRFTISQDNAKNTVYLQMNSLKPDDTAMYYCAATTALLFLAQTSSWNYWGQGTQVTVSS
notes: Bactrian camel VHH, made in a cell-free system and purified on His beads; detected through a Myc tag; also called Claudin18.2nb; not shown: N-terminal tag of the cell-free construct (8His-GSG and vector-derived residues, known only from primer DNA); amino acid; C-terminal Myc tag (detected with anti-Myc antibody)

Target: T1, CLDN18.2 (Claudin18.2) expressed on …
Test: flow cytometry on K562-CLDN18.2 cells, anti-Myc-Tag detection

Binder	binding result
B1	binds
B2	binds
B3	binds
B4	binds
